In patent US9459207B2, “Method of characterizing interactions and screening for effectors” (Wyatt Technology Corporation, priority 2010, dated 2016):

B1: soybean trypsin inhibitor: protein, molar mass of 22 kDa, binds chymotrypsin (protein, UniProt P01070 25-205, looked up)
Trypsin inhibitor A: DFVLDNEGNPLENGGTYYILSDITAFGGIRAAPTGNERCPLTVVQSRNELDKGIGTIISSPYRIRFIAEGHPLSLKFDSFAVIMLCVGIPTEWSVVEDLPEGPAVKIGENKDAMDGWFRLERVSDDEFNNYKLVFCPQQAEDDKCGDIGISIDHDDGTRRLVVSKNKPLVVQFQKLDKESL

Target: chymotrypsin (Bos taurus, UniProt P00766)
Experiment: Dynamic light scattering heteroassociation experiment (rh vs molar ratio of the two proteins, fitted)
Format: binding
Method: The method begins with sample preparation to be described presently. The DLS data are collected, and then analyzed in a four-step procedure. First, the concentrations of all components in a solution at a given time are calculated from postulated stoichiometries, association constant(s), Ka, and the known a priori concentrations of the stock solutions of the constituent molecule(s). […] Third, the modeled concentration data and modeled hydrodynamic radius data are combined to model the expected dynamic light scattering data at each sample ratio. Fourth, a best fit of the models to the collected DLS data is obtained. Thus, some or all parameters are adjusted to produce a best fit to the DLS data. Such fitting might be achieved using a least squares method, for example. These four steps of data analysis are discussed in detail in the following, and variations are possible, as would be apparent to one skilled in the art of DLS or particle associations.
In this example, to prepare the sample series for both self- and hetero-association, two stock solutions are mixed manually. For analysis of hetero-association, a high concentration, on the order of 0.5 mg/mL, solution of each pure molecule is prepared in the same solvent. For larger molecules, such as those greater than, say, 50 kDa, lower concentrations may be used. For analysis of self-association reactions, the molecular solution is prepared at the highest concentration to be tested; the second solution is the pure solvent in which the sample molecule was prepared. All solutions are filtered through a 0.02 μm filter.
For either type of analysis, aliquots of the two solution mixtures are dispensed into a 1536 well microtiter plate in a series of ratios from 100% A:0% B to 0% A:100% B, or some subset thereof, where the number of ratios prepared depends upon the desired detail of analysis. Typically, 10-20 ratios are used.
Following the dispensing of the sample, the microtiter plate is centrifuged at a rate and duration sufficient to remove any bubbles present in the samples; typically 1000 g for 15 seconds. Wells may then be covered to avoid evaporation, for example, by dispensing approximately 10 μL of paraffin oil into each well. The plate is then re-centrifuged prior to being placed into a dynamic light scattering instrument programmed, for example, to make 25 one-second dynamic light scattering measurements per well.
As an example of the inventive method, we consider two species A and B associating to form species AB with equilibrium association constant KAB: A+B ? AB. In this example we will use fitting procedure C, using the average hydrodynamic radius found by fitting the autocorrelation function measured for each sample to a cumulants model. We will assume that Equation (11) is valid. […]

Row | Molecule | binding to chymotrypsin (in words) (negative control, FIG. 5) | association constant (negative control, pH 6.7) | a value (association conformation parameter) (DLS fit, rAB={rA^a+rB^a}^1/a) | association constant (DLS fit, soybean trypsin inhibitor fitted with an incompetent fraction of chymotrypsin)
1 | lysozyme: protein, 14.4 kDa, negative control | no binding | 0 | – | –
2 | B1 | – | – | 2.26 | 3.8e+06 M⁻¹
